Assay results taken from patent US11344542B2, “Treatment of aging-associated disease with modulators of leukotriene A4 hydrolase” (Alkahest, Inc., priority 2018, dated 2022).

What was measured:
Type in all cases: in vivo, mouse
[1] = test system: 8-week old (young) wild-type (C57BL/6) mice; assay: Contextual and cued fear conditioning in young mice treated with recombinant human LTA4H protein
Protocol: Mice were brought into the testing room immediately before their trial to avoid exposure to sounds and scents from testing. Day 1: For training, mice were placed in the chambers, bright house light and fan on, for 2 minutes. Then an auditory cue (2000 Hz, 70 dB, conditioned stimulus (CS)) was presented for 30 seconds. A 2 second foot shock (0.6 mA; unconditioned stimulus (US)) was administered for the final 2 seconds of the CS. This procedure was repeated once, each after a 2 minute interval, and the mouse was removed from the chamber 30 seconds after the second shock. The pans, chamber walls and grid floors were cleaned with 70% ethanol between trials. Day 2: Seventy-two hours after the training, the mouse was returned to the same chamber in which the training occurred (memory for context), and freezing behavior was recorded for 3 min. The mouse was returned to its home cage. The pans, chamber walls, and grid floors were cleaned with 70% ethanol between trials. Day 3: 24 hours after context testing, the mouse was returned to the same chamber and freezing was recorded in a novel environment (altered context) and in response to the cue (memory for cue). […] The mouse was placed in the novel environment and freezing was recorded for 2 minutes. The auditory cue (2000 Hz, 70 dB, CS) was then presented for 30 seconds, and freezing was again recorded for 2 minutes. […]

[2] = test system: 8-week old (young) wild-type (C57BL/6) mice; assay: Y-maze in young mice treated with recombinant human LTA4H protein
Protocol: A large Y-maze test assessed short-term memory of the familiarity of a specific context. Mice were brought to the experimental room for at least 30 min of acclimation to the experimental room conditions (dim lighting) prior to testing. For the initial training trial, the mouse was placed at the end of one arm of a large Y-maze designated “start arm” (arm length: 15 inches). The third arm of the maze was blocked off, allowing the mouse to explore two of the three arms freely (“start arm” and “familiar arm”) for 5 min. Each arm contained spatial cues. Three hours later, the mouse was placed back into the maze in the “start arm,” and allowed to explore all three arms with the third arm unblocked (“novel arm”). Movements in and out of each arm were tracked using automated tracking software (CleverSys or San Diego Instruments). Testing was performed under dim lighting, and the apparatus was cleaned with 70% ethanol between trials. The time spent and number of entireties into the “novel arm” and “familiar arm” were analyzed, as well as total distance travelled and velocity as measures of general locomotor activity.
The initial study in young, 8-week old wild-type (WT; C57BL/6) mice was repeated in a second cohort of mice with additional timepoints and readouts. Mice were homogenized between 3 treatment groups by body weight. Group 1 (Vehicle) was injected intravenously (IV) with PBS control 3 times per week for 6 weeks, group 2 (LTA4H Pulse) with recombinant human LTA4H protein daily for 7 consecutive days, and group 3 (LTA4H Continuous) with recombinant human LTA4H protein 3 times per week for 6 weeks. In week 4 after the initiation of dosing, mice in all treatment groups were injected IP with BrdU (5-bromo-2′-deoxyuridine) formulated in PBS (phosphate buffered saline) at a final concentration of 10 mg/mL dosed at 150 mg/kg for 5 days. Behavioral assays were executed in week 5 and 6, and animals were sacrificed, and tissues collected immediately after completion of behavior testing in week 6. FIG. 10 depicts the treatment paradigm and injection timing for the study. […]

[3] = test system: mRNA levels of neuronal and glial genes; assay: qPCR of mRNA levels in young mice treated with recombinant human LTA4H protein; conditions: paradigm 1; vs PBS
Protocol: Brain tissue was sectioned or lysed and analyzed for markers of neurogenesis and aging by standard histological and biochemical methods, including qRT-PCR, Western blot, ELISA, and immunohistochemistry.
Young, 8-week old wild-type (WT; C57BL/6) mice were homogenized between groups by body weight. Following group determination, mice were injected intraperitoneally (IP) with BrdU (5-bromo-2′-deoxyuridine) formulated in PBS (phosphate buffered saline) at a final concentration of 10 mg/mL dosed at 150 mg/kg for 5 days Immediately following the BrdU dosing, group 1 was injected intravenously (IV) with PBS control and group 2 with recombinant human LTA4H protein daily for 7 consecutive days. One week after the completion of LTA4H administration, in week 3, mice in both treatment groups were injected IP with EdU (5-ethynyl-2′-deoxyuridine) formulated in PBS at a final concentration of 10 mg/mL and dosed at 50 mg/kg for 5 days. Behavioral assays were executed in week 5 and 6, and animals were sacrificed, and tissues collected immediately after completion of behavior testing in week 6. FIG. 3 depicts the treatment paradigm and injection timing for the study.
FIG. 9 reports the results of quantitative polymerase chain reaction (qPCR) quantifying mRNA levels of vesicular glutamate […] (vglut1), synapsin 1 (syn1), synaptophysin (syp), early growth response 1 (egr1), doublecortin (dcx), beta III tubulin (tuj1), glial acidic fibrillary protein (gfap), SRY-Box 2 (sox2), oligodendrocyte transcription factor 2 in 3 months old (young) wild-type (C57BL/6) mice treated with recombinant human LTA4H protein or phosphate buffered saline (PBS) control. […] Egr1 is an immediate early gene and a reduction in expression is indicative of a depression of neuronal activity. Tuj1 is a neuronal marker and the reduction in expression points to detrimental effects on neurons. […] Overall the decreases in neuronal markers and trends towards decreases in oligodendrocyte markers indicate a detrimental effect on neuronal activity and integrity in LTA4H treated animals. […]

B1: recombinant human LTA4H: Recombinant human LTA4H (Bio-techne, 4008-SN), leukotriene A4 hydrolase enzyme, dosed by tail vein i.v. injection (protein, UniProt P09960 2-611, looked up)
Leukotriene A-4 hydrolase: PEIVDTCSLASPASVCRTKHLHLRCSVDFTRRTLTGTAALTVQSQEDNLRSLVLDTKDLTIEKVVINGQEVKYALGERQSYKGSPMEISLPIALSKNQEIVIEISFETSPKSSALQWLTPEQTSGKEHPYLFSQCQAIHCRAILPCQDTPSVKLTYTAEVSVPKELVALMSAIRDGETPDPEDPSRKIYKFIQKVPIPCYLIALVVGALESRQIGPRTLVWSEKEQVEKSAYEFSETESMLKIAEDLGGPYVWGQYDLLVLPPSFPYGGMENPCLTFVTPTLLAGDKSLSNVIAHEISHSWTGNLVTNKTWDHFWLNEGHTVYLERHICGRLFGEKFRHFNALGGWGELQNSVKTFGETHPFTKLVVDLTDIDPDVAYSSVPYEKGFALLFYLEQLLGGPEIFLGFLKAYVEKFSYKSITTDDWKDFLYSYFKDKVDVLNQVDWNAWLYSPGLPPIKPNYDMTLTNACIALSQRWITAKEDDLNSFNATDLKDLSSHQLNEFLAQTLQRAPLPLGHIKRMQEVYNFNAINNSEIRFRWLRLCIQSKWEDAIPLALKMATEQGRMKFTRPLFKDLAAFDKSHDQAVRTYQEHKASMHPVTAMLVGKDLKVD
For B1, the “percent time freezing during contextual testing” value ([1]; 72 hours after training, IV daily for 7 consecutive days, vs PBS) was “significantly decreased freezing”, the “percent time freezing during cued testing” value ([1]; pre/post cue tone, difference between treatment groups) was “no significant difference between treatment groups” and the “memory of the familiar arm in Y-maze testing (novel vs familiar arm entries)” value ([2]; paradigm 2: continuous dosing) was “impaired memory”. For the same molecule, the “memory of the familiar arm in Y-maze testing (novel vs familiar arm entries)” value ([2]; paradigm 2: pulse dosing) was “impaired memory”, the “number of entries into the familiar arm during Y-maze training” value ([2]; paradigm 2: pulse or continuous dosing, vs PBS) was “no differences” and the “egr1 mRNA expression (qPCR)” value [3] was “significant decrease”. The “olig 2 mRNA expression (qPCR)” value [3] was “trend towards a decrease” and the “tuj1 mRNA expression (qPCR)” value [3] was “significant decrease”.
